Measured values published in US20160053277A1, “Compositions Having Dicamba Decarboxylase Activity and Methods of Use” (PIONEER HI-BRED INTERNATIONAL, INC., priority 2013, published 2016).
Numbering of substitutions follows the chain as printed. Names and notes keep the numbering of the source.

B1: 132 (protein)
chain: SLLRFSAVSRHHRGASIDPMTFSEATTPDALTPDAHTPRLLTCDVLYTGMGGAQSPGGVVVVGETVAAAGHPDELRRQYPHAAEERAGAVIAPPPVNAHTHLDMSAYEFQALPYFQWIPEVVIRGRHLRGVAAAQAGADTLTRLGAGGVGDIVWAPEVMDALLAREDLSGTLYFEVLNPFPDKADEVFAAARTHLERWRRLERPGLRLGLSPHTPFTVSHRLMRLLSDYAAGEGLPLQIHVAEHPTELEMFRTGGGPLWDNRMPALYPHTLAEVIGREPGPDLTPVRYLDELGVLAARPTLVHMVNVTPDDIARVARAGCAVVTCPRSNHHLECGTFDWPAFAAAGVEVALGTDSVASGETLNVREEVTFARQLYPGLDPRVLVRAAVKGGQRVVGGRTPFLRRGETWQEGFRWELSRDL
modifications: Deinococcus Radiodurans
B2: 131 (protein)
chain: MSLTKIDAYAHILPAKYYQKMLSVEPNIPNMFPFIKIKTLMDLDERLTKWPDQNTKQVISLANISPEDFTDSKTSAELCQSANEELSNLVDQHPGKFAGAVAILPMNNIESACKVISSIKDDENLVGAQIFTRHLGKSIADKEFRPVLAQAAKLHVPLWMHPVFDARKPDNNLVFSWEYELSQAMLQLVQSDLFQDYPNLKILVHHAGAMVPFFSGRIDHILDEKHAQDFKKFYVDTAILGNTPALQLAIDYYGIDHVLFGTDAPFAVMPSGADQIITQAINDLTISDKDKQKIFHDNYYSLIKEGHHHHHH
modifications: Lactobacillus Acidophilus
B3: 130 (protein)
chain: MGSSHHHHHHSSGRENLYFQGMKSITFEEHYVIEDIQKETMNAISADPKGVPMKVMLEGLEKKTGFTNADELSHHDERIQFMNNQDVQIQVLSYGNGSPSNLVGQKAIELCQKANDQLANYIAQYPNRFVGFATLPINEPEAAAREFERCINDLGFKGALIMGRAQDGFLDQDKYDIIFKTAENLDVPIYLHPAPVNSDIYQSYYKGNYPEVTAATFACFGYGWHIDVGIHAIHLVLSGIFDRYPKLNMIIGHWGEFIPFFLERMDEALFAEHLNHSVSYYFKNSFYITPSGMLTKPQFDLVKKEVGIDRILYAADYPYIEPEKLGVFLDELGLTDEEKEKISYTNGAKLLGLSSNN
modifications: Staphylococcus Aureus
B4: D299A: point mutant of SEQ ID NO: 109 (protein)
chain: MAQGKVALEEHFAIPETLQDSAGFVPGDYWKELQHRLLDIQDTRLKLMDAHGIETMILSLNAPAVQAIPDRRKAIEIARRANDVLAEECAKRPDRFLAFAALPLQDPDAATEELQRCVNDLGFVGALVNGFSQEGDGQTPLYYDLPQYRPFWGEVEKLDVPFYLHPRNPLPQDSRIYDGHPWLLGPTWAFAQETAVHALRLMASGLFDEHPRLNIILGHMGEGLPYMMWRIDHRVAWVKLPPRYPAKRRFMDYFNENFHITTSGNFRTQTLIDAILEIGADRILFSTDWPFENIDHASAWFNATSIAEADRVKIGRTNARRLFKLDGA
modifications: Dicamba decarboxylase variant clone: DC.4.032
B5: G52E: point mutant of SEQ ID NO: 109 (protein)
chain: B4 chain with G52E, A299D
modifications: Dicamba decarboxylase variant clone: DC.4.032
B6: A328D: point mutant of SEQ ID NO: 109 (protein)
chain: B4 chain with A299D, A328D
modifications: Dicamba decarboxylase variant clone: DC.4.032
B7: T43C: point mutant of SEQ ID NO: 109 (protein)
chain: B4 chain with T43C, A299D
modifications: Dicamba decarboxylase variant clone: DC.4.032
B8: G27S: point mutant of SEQ ID NO: 109 (protein)
chain: B4 chain with G27S, A299D
modifications: Dicamba decarboxylase variant clone: DC.4.032
B9: D42A: point mutant of SEQ ID NO: 109 (protein)
chain: B4 chain with D42A, A299D
modifications: Dicamba decarboxylase variant clone: DC.4.032
B10: A50K: point mutant of SEQ ID NO: 109 (protein)
chain: B4 chain with A50K, A299D
modifications: Dicamba decarboxylase variant clone: DC.4.032
B11: G27T: point mutant of SEQ ID NO: 109 (protein)
chain: B4 chain with G27T, A299D
modifications: Dicamba decarboxylase variant clone: DC.4.032
B12: W30L: point mutant of SEQ ID NO: 109 (protein)
chain: B4 chain with W30L, A299D
modifications: Dicamba decarboxylase variant clone: DC.4.032
B13: R321N: point mutant of SEQ ID NO: 109 (protein)
chain: B4 chain with A299D, R321N
modifications: Dicamba decarboxylase variant clone: DC.4.032
B14: D42S: point mutant of SEQ ID NO: 109 (protein)
chain: B4 chain with D42S, A299D
modifications: Dicamba decarboxylase variant clone: DC.4.032
B15: A328R: point mutant of SEQ ID NO: 109 (protein)
chain: B4 chain with A299D, A328R
modifications: Dicamba decarboxylase variant clone: DC.4.032
B16: A303E: point mutant of SEQ ID NO: 109 (protein)
chain: B4 chain with A299D, A303E
modifications: Dicamba decarboxylase variant clone: DC.4.032
B17: L38I: point mutant of SEQ ID NO: 109 (protein)
chain: B4 chain with L38I, A299D
modifications: Dicamba decarboxylase variant clone: DC.4.032
B18: G327Q: point mutant of SEQ ID NO: 109 (protein)
chain: B4 chain with A299D, G327Q
modifications: Dicamba decarboxylase variant clone: DC.4.032
B19: D42M: point mutant of SEQ ID NO: 109 (protein)
chain: B4 chain with D42M, A299D
modifications: Dicamba decarboxylase variant clone: DC.4.032
B20: D20F: point mutant of SEQ ID NO: 109 (protein)
chain: B4 chain with D20F, A299D
modifications: Dicamba decarboxylase variant clone: DC.4.032
B21: G27A: point mutant of SEQ ID NO: 109 (protein)
chain: B4 chain with G27A, A299D
modifications: Dicamba decarboxylase variant clone: DC.4.032
B22: N302A: point mutant of SEQ ID NO: 109 (protein)
chain: B4 chain with A299D, N302A
modifications: Dicamba decarboxylase variant clone: DC.4.032

Assay: Saturation mutagenesis of SEQ ID NO:109: dicamba decarboxylation activity of point mutants (carbon dioxide released)
Settings: decarboxylation activity (carbon dioxide released) of point mutant compared with unmutated backbone protein; backbone SEQ ID NO: 109

| Molecule | Fold Activity |
| --- | --- |
| B1 | 1.6 |
| B2 | 1.6 |
| B3 | 1.2 |

Same assay, conditions: dicamba decarboxylation activity of point mutants of SEQ ID NO: 109, relative to unchanged template

| Molecule | Average Activity (Fold of SEQ ID NO: 109) |
| --- | --- |
| B4 | 2.0 Fold of SEQ ID NO: 109 |
| B5 | 3.1 Fold of SEQ ID NO: 109 |
| B6 | 2.3 Fold of SEQ ID NO: 109 |
| B7 | 1.7 Fold of SEQ ID NO: 109 |
| B8 | 2.2 Fold of SEQ ID NO: 109 |
| B9 | 2.0 Fold of SEQ ID NO: 109 |
| B10 | 1.9 Fold of SEQ ID NO: 109 |
| B11 | 2.0 Fold of SEQ ID NO: 109 |
| B12 | 1.7 Fold of SEQ ID NO: 109 |
| B13 | 1.7 Fold of SEQ ID NO: 109 |
| B14 | 2.0 Fold of SEQ ID NO: 109 |
| B15 | 3.0 Fold of SEQ ID NO: 109 |
| B16 | 2.3 Fold of SEQ ID NO: 109 |
| B17 | 2.0 Fold of SEQ ID NO: 109 |
| B18 | 2.8 Fold of SEQ ID NO: 109 |
| B19 | 2.4 Fold of SEQ ID NO: 109 |
| B20 | 1.9 Fold of SEQ ID NO: 109 |
| B21 | 2.0 Fold of SEQ ID NO: 109 |
| B22 | 1.9 Fold of SEQ ID NO: 109 |

Same assay, conditions: point mutation in SEQ ID NO: 109

| Molecule | Average Activity (Fold of SEQ ID NO: 109) |
| --- | --- |
| B5 | 3.1 Fold of SEQ ID NO: 109 |
| B6 | 2.3 Fold of SEQ ID NO: 109 |
| B7 | 1.7 Fold of SEQ ID NO: 109 |
| B8 | 2.2 Fold of SEQ ID NO: 109 |
| B10 | 1.9 Fold of SEQ ID NO: 109 |
| B12 | 1.7 Fold of SEQ ID NO: 109 |
| B13 | 1.7 Fold of SEQ ID NO: 109 |
| B17 | 2.0 Fold of SEQ ID NO: 109 |
| B18 | 2.8 Fold of SEQ ID NO: 109 |
| B19 | 2.4 Fold of SEQ ID NO: 109 |
| B20 | 1.9 Fold of SEQ ID NO: 109 |
| B22 | 1.9 Fold of SEQ ID NO: 109 |
